# Test results: patent US20130171184A1
# Target: Neisseria meningitidis Hsf (Msf) of strain H44/76, expressed on meningococci (Neisseria meningitidis strain H44/76) (UniProt Q7DDJ2)
# Assay: ELISA, bacteria preincubated with 25 µg/ml peptide, binding to 2.5 µg/ml immobilised aVn
# Sequence of Neisseria meningitidis Hsf (Msf) of strain H44/76, expressed on meningococci (Neisseria meningitidis strain H44/76) (Q7DDJ2 52-591): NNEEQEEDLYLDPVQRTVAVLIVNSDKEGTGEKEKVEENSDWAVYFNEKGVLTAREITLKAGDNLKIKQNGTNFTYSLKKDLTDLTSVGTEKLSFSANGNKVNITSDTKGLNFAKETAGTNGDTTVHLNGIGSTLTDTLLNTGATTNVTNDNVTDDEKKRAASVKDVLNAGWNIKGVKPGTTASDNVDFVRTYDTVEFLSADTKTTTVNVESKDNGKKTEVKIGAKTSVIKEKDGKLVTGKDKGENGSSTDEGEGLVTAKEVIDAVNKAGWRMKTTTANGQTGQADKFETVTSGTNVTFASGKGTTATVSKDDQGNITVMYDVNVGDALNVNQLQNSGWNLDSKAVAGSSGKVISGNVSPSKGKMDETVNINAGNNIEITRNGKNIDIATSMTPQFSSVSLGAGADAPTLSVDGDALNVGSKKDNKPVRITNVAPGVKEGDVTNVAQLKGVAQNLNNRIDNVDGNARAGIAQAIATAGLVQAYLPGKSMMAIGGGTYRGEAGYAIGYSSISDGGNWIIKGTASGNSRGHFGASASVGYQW
substance,measurement,value
biotinylated sulphated vitronectin peptide VA-26S (amino acids 43-68),reduction in Msf binding to aVn,30%
